In the test the target is T1, human AILIM-IgFc (human, UniProt Q9Y6W8).
T1 chain: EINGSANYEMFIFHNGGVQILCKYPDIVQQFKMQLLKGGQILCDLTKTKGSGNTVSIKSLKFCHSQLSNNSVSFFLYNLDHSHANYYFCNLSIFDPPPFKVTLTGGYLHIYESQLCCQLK
Briefly: SPR. A general note: In SPR one partner is held on a chip, and binding of the other changes the refractive index at the surface.

B1: AII289 (JMab-138) (antibody, V domains shown)
VH: EVQLVESGGGLVQPGGSLRLSCAASGFTFSSYDMHWVRQATGKGLEWVSAIGTAGDTYYPGSVKGRFTISRENAKNSLYLQMNSLRAGDTAVYYCVRDNRKVTHEHYYYYGMDVWGQGTTVTVSS
VL: EIVLTQSPGTLSLSPGERATLSCRASQNIRSSYLAWYQQKPGQAPGLLIYGASSRATGIPDRFSGSGSGTDFTLTISRLEPEDFAVYYCQQFGSSPMCSFGQGTKLEIKR
A word on the Kd: it is the constant that tells how readily two partners part at equilibrium. Low values mean higher affinity, high ones lower affinity. Regarding B1, the dissociation constant (Kd) came out at 1.1 nM.

B2: AII394 (JMab-139) (antibody, V domains shown)
VH: EVQLVESGGGLVQPGGSLRLSCAASGFTFSSYDMHWVRQATGKGLEWVSAIGTAGDTYYPGSVKGRFTISRENAKNSLYLQMNSLRAGDTAVYYCVRDKRTVTHEHYYYYGMDVWGQGTTVTVSS
VL: EIVLTQSPGTLSLSPGERATLSCRASQSISSSSLAWYQQKPGQAPGLLIFGASSRATGIPDRFSGSGSGTDFTLTISRLEPEDFAVYYCQQFGSSPMCSFGQGTKLEIKR
In the case of B2, the Kd is 0.77 nM.
